Paper PMC9600979

Key:
[1] = target: gH-Lg CTSCR / HSV-1 gL (herpes simplex virus 1 (strain KOS)) (UniProt P10185); assay: split reporter (BiFC, NanoBiT); live CHO effector cells transfected with the two BiT-tagged partners and the remaining HSV-1 proteins required for fusion; Endurazine substrate; luminescence every 2 min at 37°C for 1 h before and 7.5 or 8 h after adding target CHO cells with or without nectin-1; quantified as area under the curve
[2] = target: gH-Lg TMDEBV / HSV-1 gL (herpes simplex virus 1 (strain KOS) | Epstein-Barr virus) (UniProt P10185); assay: as above
[3] = target: gH-Lg TMDEBV-CTSCR / HSV-1 gL (herpes simplex virus 1 (strain KOS) | Epstein-Barr virus) (UniProt P10185); assay: as above
[4] = target: HSV-1 gH-Lg expressed without gL (herpes simplex virus 1 (strain KOS)) (UniProt P06477); assay: split reporter (BiFC, NanoBiT); as the NanoBiT assay in live CHO cells, but in the absence of HSV-1 gL (gH stays in the ER)
Chain of UniProt P06477 (P06477 19-838): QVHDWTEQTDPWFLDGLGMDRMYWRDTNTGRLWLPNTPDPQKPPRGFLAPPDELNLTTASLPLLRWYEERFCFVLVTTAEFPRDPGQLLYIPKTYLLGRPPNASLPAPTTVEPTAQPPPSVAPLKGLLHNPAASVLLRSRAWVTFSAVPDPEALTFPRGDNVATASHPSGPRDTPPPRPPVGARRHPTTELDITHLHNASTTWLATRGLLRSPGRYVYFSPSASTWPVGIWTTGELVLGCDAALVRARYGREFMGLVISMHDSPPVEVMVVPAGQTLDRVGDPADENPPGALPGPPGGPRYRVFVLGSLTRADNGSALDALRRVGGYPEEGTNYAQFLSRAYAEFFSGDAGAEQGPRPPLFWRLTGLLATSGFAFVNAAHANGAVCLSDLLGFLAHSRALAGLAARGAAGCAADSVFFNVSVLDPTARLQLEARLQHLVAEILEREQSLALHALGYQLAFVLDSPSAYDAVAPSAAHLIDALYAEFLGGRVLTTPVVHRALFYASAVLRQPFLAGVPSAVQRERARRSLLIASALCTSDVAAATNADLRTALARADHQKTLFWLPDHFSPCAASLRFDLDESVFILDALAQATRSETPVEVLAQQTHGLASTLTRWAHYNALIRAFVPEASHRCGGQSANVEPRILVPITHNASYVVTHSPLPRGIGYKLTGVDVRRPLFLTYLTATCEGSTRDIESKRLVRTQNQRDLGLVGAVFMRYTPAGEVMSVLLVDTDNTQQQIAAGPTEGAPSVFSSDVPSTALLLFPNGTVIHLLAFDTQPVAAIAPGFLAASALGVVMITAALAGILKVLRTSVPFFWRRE

HSV-1 gB-Sm (from UniProt P06437 31-904) (natural protein)
percent of the interaction of WT HSV-1 gH-Lg/gL [1]: 60% | percent of the interaction of WT HSV-1 gH-Lg/gL [2]: 60% | percent of the interaction of WT HSV-1 gH-Lg/gL [3]: 54%

HSV-1 gD-Sm (from UniProt Q69091 26-394) (natural protein)
fold reduction in the absence of gL (against gH-Lg/gL) [4]: 6 fold | percent of the interaction of WT HSV-1 gH-Lg [3]: 45%
